B1: Ib_S4_P4E.1_K4.1_C4.1_H4.1_A4.1_F4.1_[T8C]_[A9G]_T4.1 (ssRNA)
RNA: UUUGACAACUGAUCGUUCUUUCUUGUAUAUCGUUCUUUCUCGAUCAGUUGUCUUU
B2: Ic_S4_P4E.1_K4.1_C4.1_H4.1_A4.1_F4.1_[T8A]_[A9C]_T4.1 (ssRNA)
RNA: UUUGACAACUGAUCGUUCUUUCUUGUAUAUACUUCUUUCUCGAUCAGUUGUCUUU
B3: Ib_S4_P4E.1_K4.1_C4.1_H4.1_[T1C]_A4.1_F4.1_[A9C]_T4.1 (ssRNA)
RNA: UUUGACAACUGAUCGUUCUUUCUCGUAUAUUCUUCUUUCUCGAUCAGUUGUCUUU
B4: Ib_S4_P4E.1_K4.1_C4.1_H4.1_[T1G]_A4.1_F4.1_[T8C]_T4.1 (ssRNA)
RNA: UUUGACAACUGAUCGUUCUUUCUGGUAUAUCAUUCUUUCUCGAUCAGUUGUCUUU
B5: Ib_S4_P4E.1_K4.1_C4.1_H4.1_[T1G]_A4.1_F4.1_[A9G]_T4.1 (ssRNA)
RNA: UUUGACAACUGAUCGUUCUUUCUGGUAUAUUGUUCUUUCUCGAUCAGUUGUCUUU
B6: Ib_S4_P4E.1_K4.1_C4.1_H4.1_[T1G]_A4.1_F4.1_[T8A]_T4.1 (ssRNA)
RNA: UUUGACAACUGAUCGUUCUUUCUGGUAUAUAAUUCUUUCUCGAUCAGUUGUCUUU
B7: Ib_S4_P4E.1_K4.1_C4.1_H4.1_[T3C]_A4.1_F4.1_[A9G]_T4.1 (ssRNA)
RNA: UUUGACAACUGAUCGUUCUUUCUUGCAUAUUGUUCUUUCUCGAUCAGUUGUCUUU
B8: Ib_S4_P4E.1_K4.1_C4.1_H4.1_A4.1_F4.1_[T8A]_[A9G]_T4.1 (ssRNA)
RNA: UUUGACAACUGAUCGUUCUUUCUUGUAUAUAGUUCUUUCUCGAUCAGUUGUCUUU
B9: Ib_S4_P4E.1_K4.1_C4.1_H4.1_[A4G]_A4.1_F4.1_[T8C]_T4.1 (ssRNA)
RNA: UUUGACAACUGAUCGUUCUUUCUUGUGUAUCAUUCUUUCUCGAUCAGUUGUCUUU
B10: Ib_S4_P4E.1_K4.1_C4.1_H4.1_[T1C]_A4.1_F4.1_[T8C]_T4.1 (ssRNA)
RNA: UUUGACAACUGAUCGUUCUUUCUCGUAUAUCAUUCUUUCUCGAUCAGUUGUCUUU
B11: Ib_S4_P4E.1_K4.1_C4.1_H4.1_[T1A]_A4.1_F4.1_[T8A]_T4.1 (ssRNA)
RNA: UUUGACAACUGAUCGUUCUUUCUAGUAUAUAAUUCUUUCUCGAUCAGUUGUCUUU
B12: Ib_S4_P4E.1_K4.1_C4.1_H4.1_[T3C]_A4.1_F4.1_[A9C]_T4.1 (ssRNA)
RNA: UUUGACAACUGAUCGUUCUUUCUUGCAUAUUCUUCUUUCUCGAUCAGUUGUCUUU
B13: Ib_S4_P4E.1_K4.1_C4.1_H4.1_[G2A]_A4.1_F4.1_[A9G]_T4.1 (ssRNA)
RNA: UUUGACAACUGAUCGUUCUUUCUUAUAUAUUGUUCUUUCUCGAUCAGUUGUCUUU
B14: Ib_S4_P4E.1_K4.1_C4.1_H4.1_[T1A]_A4.1_F4.1_[A9G]_T4.1 (ssRNA)
RNA: UUUGACAACUGAUCGUUCUUUCUAGUAUAUUGUUCUUUCUCGAUCAGUUGUCUUU
B15: Ib_S4_P4E.1_K4.1_C4.1_H4.1_[T3C]_A4.1_F4.1_[A9T]_T4.1 (ssRNA)
RNA: UUUGACAACUGAUCGUUCUUUCUUGCAUAUUUUUCUUUCUCGAUCAGUUGUCUUU
B16: Ib_S4_P4E.1_K4.1_C4.1_H4.1_[A4G]_A4.1_F4.1_[T8A]_T4.1 (ssRNA)
RNA: UUUGACAACUGAUCGUUCUUUCUUGUGUAUAAUUCUUUCUCGAUCAGUUGUCUUU
B17: Ib_S4_P4E.1_K4.1_C4.1_H4.1_[G2C]_A4.1_F4.1_[A9C]_T4.1 (ssRNA)
RNA: UUUGACAACUGAUCGUUCUUUCUUCUAUAUUCUUCUUUCUCGAUCAGUUGUCUUU
B18: Ib_S4_P4E.1_K4.1_C4.1_H4.1_[G2C]_A4.1_F4.1_[T8C]_T4.1 (ssRNA)
RNA: UUUGACAACUGAUCGUUCUUUCUUCUAUAUCAUUCUUUCUCGAUCAGUUGUCUUU
B19: Ib_S4_P4E.1_K4.1_C4.1_H4.1_[A4C]_A4.1_F4.1_[T8A]_T4.1 (ssRNA)
RNA: UUUGACAACUGAUCGUUCUUUCUUGUCUAUAAUUCUUUCUCGAUCAGUUGUCUUU
B20: Ia_S4_P3E.1_K3.1_C3.1_H3.1_A3.1_F3.1_[A8C]_T3.1 (ssRNA)
RNA: UUUGACAACUGAUCGUUCUUUCUUGUAUAUCUUCUUUCUCGAUCAGUUGUCUUU
B21: Ia_S4_P3E.1_K3.1_C3.1_H3.1_[T1G]_A3.1_F3.1_T3.1 (ssRNA)
RNA: UUUGACAACUGAUCGUUCUUUCUGGUAUAUAUUCUUUCUCGAUCAGUUGUCUUU

These binders were tested against T1, PUF4 RNA-binding domain (Saccharomyces cerevisiae, UniProt P25339 537-888) (assay: Mg; RNA-MaP; 20 mM Na-HEPES pH 7.4, 30 mM KOAc, 0.75 mM MgCl2, 0.1% Tween-20, 5% glycerol, 0.1 mg/mL BSA, 2 mM DTT; 25 C; 0.0125-409.6 nM protein). Details: tags: N-His6-TEV cleaved; C-SNAP kept, Cy3B-labelled; label: tethered on chip by stalled RNA polymerase.
T1 sequence: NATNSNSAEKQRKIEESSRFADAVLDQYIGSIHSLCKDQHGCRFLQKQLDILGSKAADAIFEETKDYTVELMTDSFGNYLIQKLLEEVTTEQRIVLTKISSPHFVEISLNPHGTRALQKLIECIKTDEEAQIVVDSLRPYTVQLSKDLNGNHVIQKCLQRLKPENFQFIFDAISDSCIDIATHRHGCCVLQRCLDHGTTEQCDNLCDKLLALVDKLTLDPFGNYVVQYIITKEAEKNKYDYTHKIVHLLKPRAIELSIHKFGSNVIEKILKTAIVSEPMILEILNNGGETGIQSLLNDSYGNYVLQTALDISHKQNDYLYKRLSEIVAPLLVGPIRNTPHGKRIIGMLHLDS

Question: B1 was tested. Which Kd did it give?
Answer: 0.0171 µM

Question: Which Kd does the source give for B2 here?
Answer: 0.0063 µM

Question: With B3 as the binder, how does the Kd read?
Answer: 1.02 µM

Question: For B4, which Kd is on record?
Answer: > 2.3 µM

Question: B5 was tested. Which Kd did it give?
Answer: 1.71 µM

Question: With B6 as the binder, how does the Kd read?
Answer: 1.41 µM

Question: For B7, which Kd is on record?
Answer: > 2.3 µM

Question: Which Kd does the source give for B8 here?
Answer: 0.00997 µM

Question: For B9, which Kd is on record?
Answer: 0.0244 µM

Question: With B10 as the binder, how does the Kd read?
Answer: 0.652 µM

Question: Which Kd does the source give for B11 here?
Answer: 1.68 µM

Question: B12 was tested. Which Kd did it give?
Answer: > 2.3 µM

Question: For B13, which Kd is on record?
Answer: 0.329 µM

Question: For B14, which Kd is on record?
Answer: 2.23 µM

Question: With B15 as the binder, how does the Kd read?
Answer: 1 µM

Question: Which Kd does the source give for B16 here?
Answer: 0.00619 µM

Question: For B17, which Kd is on record?
Answer: 1.53 µM

Question: B18 was tested. Which Kd did it give?
Answer: 0.666 µM

Question: With B19 as the binder, how does the Kd read?
Answer: 0.458 µM

Question: For B20, which Kd is on record?
Answer: 0.0123 µM

Question: How did the Kd turn out when B21 was run?
Answer: 1.28 µM
